Laboratory results published in patent publication US20220112288A1 (published 2022).

Molecular target: T1, Recombinant human CD4 (R&D Systems, Cat. 10327-CD) (human, UniProt P01730 26-390, limits assumed)
T1 construct: Bought protein; also called huCD4
Assay: BLI (Octet Red384), purified antibody on anti-mouse Fc sensors, human CD4 100/50/25 nM, global 1:1 fit;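 note: antibodies loaded at 10 µg/mL, curves fitted across association and dissociation phases, with an unrelated mouse-derived antibody serving as internal reference control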
Procedure: A three-point, 1:1 serial dilution of human and rhesus CD4 proteins were prepared using kinetics buffer as diluent. […] 10 mM Glycine pH 1.7, and kinetics buffer were used to regenerate the AMC biosensors. […] An irrelevant antibody derived from the Alivamab mouse was included in the assay as an internal reference control.
After completion of the kinetic characterization assays, data was analyzed in Forte Bio analysis software v11. The Y-axis was aligned to the final 5 seconds of the baseline step, with inter-step alignment to the dissociation step. Savitzky-Golay Filtering was used to smooth the data. Kinetic curves were fit to both association and dissociation steps using a 1:1 stoichiometry model.

Row | Binder | Kd | Response | koff | kon
1 | 75110_08H11A (antibody, V domains shown, Tested as antibody purified from AlivaMab Mouse Kappa hybridoma (human V regions, kappa light chain, mouse Fc captured by anti-mouse Fc sensors); also called 75110_08H1lA) VH: EVQLVESGGGLVQPGGSLRLSCAASGFTFSSYDMHWVRQATGKGLEWVSTIGTAGDTYYPGSVKGRFTISRENAKNSLYLQMNSLRAGDTAVYYCARGGYSYYGMDVWGQGTTVTVSS VL: EIVLTQSPGTLSLSPGERATLSCGASQSVSSTYLAWYQQKPGQAPRLLIYGASSRATGIPDRFSGSGSGTDFTLTISRLEPEDFAVYYCQQFGSSPFTFGPGTKVDIK | 26 nM | 0.04 | 3.6e-05 s⁻¹ | 1400 M⁻¹ s⁻¹
2 | 75110_05K11A (antibody, V domains shown, Tested as antibody purified from AlivaMab Mouse Kappa hybridoma (human V regions, kappa light chain, mouse Fc captured by anti-mouse Fc sensors)) VH: EVQLVESGGGLVQPGGSLRLSCAASGFTFSSYDMHWVRQPTGKGLEWVSTIGTAGDTYYPASVKGRFTISRENAKNSLYLQMNSLRAGDTAVYYCARGGFYYYGMDVWGQGTTVTVSS VL: EIVLTQSPGTLSLSPGERVTLSCRASQSVSNTYLAWYQQKPGQAPRLLIYGASSRATGIPDRFSGSGSGTDFTLTISRLEPEDFVVYYCQQHGSSPFTFGPGTKVDIK | < 0.001 nM | 0.04 | < 1e-07 s⁻¹ | 36000 M⁻¹ s⁻¹
3 | 75110_07E04A (antibody, V domains shown, Tested as antibody purified from AlivaMab Mouse Kappa hybridoma (human V regions, kappa light chain, mouse Fc captured by anti-mouse Fc sensors)) VH: EVQLVESGGGLVQPGGSLRLSCAVSGFTFSSYDMHWVRQATGKGLEWVSTIGTAGDTYYPGSVKGRFTISRENAKKFLYLQMNSLRAGDTAVYYCARGGYYYYGMDVWGQGTTVTVSS VL: not shown | < 0.001 nM | 0.07 | < 1e-07 s⁻¹ | 35000 M⁻¹ s⁻¹
4 | 75110_08H06A (antibody, V domains shown, Tested as antibody purified from AlivaMab Mouse Kappa hybridoma (human V regions, kappa light chain, mouse Fc captured by anti-mouse Fc sensors)) VH: EVQLVESGGGLVQPGGSLRLSCAASGFTFSNYDMHWVRQATGKGLEWVSTIGTAGDTYYPGSVKGRFTISRENAKNSLYLQMNSLRAGDTAVYYCARGGYDYYGMDVWGQGTTVTVSS VL: EIVLTQSPGTLSLSPGERATLSCRASQSITSIYLAWYRQKPGQAPRLLIYGASSRATGIPDRFSGSGSGTDFTLTISRLEPEDFAVYYCQQYGSSPFTFGPGTKVDIK | 11 nM | 0.04 | 0.00043 s⁻¹ | 39000 M⁻¹ s⁻¹
5 | 75110_08K12A (antibody, V domains shown, Tested as antibody purified from AlivaMab Mouse Kappa hybridoma (human V regions, kappa light chain, mouse Fc captured by anti-mouse Fc sensors)) VH: EVQLVESGGGLVQPGGSLRLSCAASGFTFSSYDMHWVRQATGKGLEWVSTIGTAGDTYYPGSVKGRFTISRENAENSLYLQMNSLRAGDTALYYCARGDYYYYGMDVWGQGTTVTVSS VL: EIVLTQSPGTLSLSPGERATLSCRASQSVSSTYLAWYQQKPGQAPRLLIYGASNRATGIPDRFSGSGSGTDFTLTISRLEPEDFAVYYCQQFGTSPFTFGPGTKVDIK | 220 nM | 0.05 | 0.00022 s⁻¹ | –
6 | 75110_10L22A (antibody, V domains shown, Tested as antibody purified from AlivaMab Mouse Kappa hybridoma (human V regions, kappa light chain, mouse Fc captured by anti-mouse Fc sensors)) VH: EVQLVESGGGLVQPGGSLRLSCAASGFTFSSYDMHWVRQATGKGLEWVSTIGTAGDTYYPGSVKGRFTISRENAKNSLYLQMNGLRAGDTAVYYCARGNYFYYGVDVWGQGTTVTVSS VL: not shown | 12 nM | 0.03 | 0.00045 s⁻¹ | 37000 M⁻¹ s⁻¹
7 | 75110_10N21A (antibody, V domains shown, Tested as antibody purified from AlivaMab Mouse Kappa hybridoma (human V regions, kappa light chain, mouse Fc captured by anti-mouse Fc sensors)) VH: EVQLVESGGGLVQPGGSLRLSCAASGFTFSSYDMHWVRQVTGKGLEWVSTIGTAGDTYYPGSVKGRFTISRENAKNSLYLQMNSLRAGDTAVYYCARGGYYYYGMDVWGQGTTVTVSS VL: EIVLTQSPGTLSLSPGERATLSCRASQSFISSYLAWYQQKPGQAPRLLIYGASSRATGIPDRFSGSGSGTDFTLTISRLDPEDFAVYYCQQSGNSPFTFGPGTKVDVK | 0.59 nM | 0.09 | 3.2e-05 s⁻¹ | 55000 M⁻¹ s⁻¹
8 | 75110_10O16A (antibody, V domains shown, Tested as antibody purified from AlivaMab Mouse Kappa hybridoma (human V regions, kappa light chain, mouse Fc captured by anti-mouse Fc sensors); also called 75110_10016A) VH: EVQLVESGGGLVQPGGSLRLSCAASGFTFSNSDMHWVRQATGKGLEWVSTIGTAGDTYYPGSVKGRFTISRENAKNSLYLQMNSLRAGDTAVYYCARGGLYYYGMDVWGQGTTVTVSS VL: ENVLTQSPGTLSLSPGERATLSCRASQSVSSSYLAWYQQKPGQAPRLLIYGASSRATGIPDRFSGSGSGTDFTLTISRLEPEDFAVYYCHQFGSSPFTFGPGTKVDIK | 2.4 nM | 0.08 | 0.00035 s⁻¹ | 140000 M⁻¹ s⁻¹
9 | 75110_13C07A (antibody, V domains shown, Tested as antibody purified from AlivaMab Mouse Kappa hybridoma (human V regions, kappa light chain, mouse Fc captured by anti-mouse Fc sensors)) VH: EVQLVESGGVLVQPGGSLRLSCAASGFTFSNYDMHWVRQATGKGLEWVSTIGTAGDTYYPGSVKGRFTLSRENAKNSLYLQMHSLRAGDTAVYYCARGAYGYYGMDVWGQGTTVTVSS VL: not shown | 1.7 nM | 0.11 | 0.00016 s⁻¹ | 92000 M⁻¹ s⁻¹
10 | 75110_14H13A (antibody, V domains shown, Tested as antibody purified from AlivaMab Mouse Kappa hybridoma (human V regions, kappa light chain, mouse Fc captured by anti-mouse Fc sensors)) VH: EVQLVESGGGLVQPGGSLRLSCAASGFTFSNYDMHWVRQATGKGLEWVSTIGTAGDTYYPGSVKGRFTISRKNAKNSLYLQMISLRAGDTAVYYCARGGDYYYGMDVWGQGTTVTVSS VL: not shown | 2.1 nM | 0.08 | 0.00011 s⁻¹ | 54000 M⁻¹ s⁻¹
11 | 75110_05L07A (antibody, V domains shown, Tested as antibody purified from AlivaMab Mouse Kappa hybridoma (human V regions, kappa light chain, mouse Fc captured by anti-mouse Fc sensors)) VH: EVQLVESGGGLVQPGGSLRLSCAASGFTFSSYWMSWVRQAPGKGLEWVANINQDGSDKYYVDSVKGRFTISRDNVKNSLYLQINSLRAEDTAVYYCAREGGQWLTLDYWGQGTLVTVSS VL: not shown | 15 nM | 0.28 | 0.0016 s⁻¹ | 110000 M⁻¹ s⁻¹
12 | 75110_06C16A (antibody, V domains shown, Tested as antibody purified from AlivaMab Mouse Kappa hybridoma (human V regions, kappa light chain, mouse Fc captured by anti-mouse Fc sensors)) VH: QVQLQESGPGLVTPSETLSLSCTVSGGSISDYYWSWIRQPGGKGLEWIGRIYSSGSTNYNPSLKSRVTMSVDTSKNQFSLKLSSVTAADTAVYFCARDREDYYYYGMDVWGQGTTVTVSS VL: DIQMTQSPSSLSASVGDRVTITCQASHDISNYLNWYQQKPGKAPKLLIYAASNLETGVPSRFSGSGSGTDFSFTISSLQPEDIATYYCQQYDHLPLTFGGGTKVEIK | 16 nM | 0.15 | 0.0012 s⁻¹ | 75000 M⁻¹ s⁻¹
13 | 75110_06D16A (antibody, V domains shown, Tested as antibody purified from AlivaMab Mouse Kappa hybridoma (human V regions, kappa light chain, mouse Fc captured by anti-mouse Fc sensors)) VH: QVQLQQWGAGLLKPSETLSLTCAVYGGSFSGYYWSWIRQPPGKGLEWIGEINHSGSTNYNPSLKSRVTISVVTSKNQFSLKLSSVTAADTAVYYCARVLNWFDPWGQGTLVTVSS VL: DIQMTQSPSSVSASVGDRVTITCRASQDIADWLAWYQQKPGKAPKLLIYAASSFQSGVPSRFSGSGSGTDFTLTISSLQPEDFATYFCQQANSFPYTFGQGTKLEIK | 2.8 nM | 0.25 | 0.00028 s⁻¹ | 100000 M⁻¹ s⁻¹
14 | 75110_08D24A (antibody, V domains shown, Tested as antibody purified from AlivaMab Mouse Kappa hybridoma (human V regions, kappa light chain, mouse Fc captured by anti-mouse Fc sensors)) VH: QVQLQESGPGLVKPSETLSLTCTVSGGSISGFYWSWIRQPAGKGLEWIGRIYTSENTNYNPSLKSRVTMSVDTSKNQFSLKLSSVTAADTAVYYCARDREGYYYYGMDVWGQGTTVTVSS VL: DIQMTQSPSSLSASVGDRVTITCQASQDISNYLNWYQQKPGKAPKLLIYAASNLETGVPSRFSGSGSGTDFTFTISSLQPEDIATYYCQQYDSLPITFGQGTRLEIK | 22 nM | 0.11 | 0.00027 s⁻¹ | 12000 M⁻¹ s⁻¹
15 | 75110_06E14A (antibody, V domains shown, Tested as antibody purified from AlivaMab Mouse Kappa hybridoma (human V regions, kappa light chain, mouse Fc captured by anti-mouse Fc sensors)) VH: QVQLQESGPGLVKPSETLSLTCTVSGGSISNYFWSWIRQPAGKGLEWIGRIYSSGNTNYNPSLKSRVTMSVDTSKNQFSLKLSSVTAADTAVYYCARDREDYYYYGMDVWGQGTTVTVSS VL: DIQMTQSPSSLSASVGDRVTITCQASQDISNYLNWYQQKPGKAPKLLIYGASILETGVPSRFTGSGSGTDFTFTISSLQPEDIATYYCQQYDSLPITFGQGTRLEIK | 14 nM | 0.11 | 0.00026 s⁻¹ | 18000 M⁻¹ s⁻¹
